B1: recombinant Can f 4 (protein, not shown: small tags and cut ends)
chain: QLPLPNVLTQVSGPWKTLYISSNNLDKIGDNGPFRIYMRGINVDIPRLKMSFNFYVKVDGECVENSVGASIGRDNLIKGEYNGGNYFRIIDMTPNALIGYDVNVDSKGKITKVALLMGRGAHVNEEDIAKFKKLSREKGIPEENIIYLGDTDNCPNHE
modifications: N-terminal Met; C-terminal His6 tag

Key:
[1] = molecular target: recombinant Can f 4 (dog); experiment: experimental rCan f 4 ImmunoCAP
[2] = molecular target: IgE of Bos d 23k-reactive serum A; experiment: ImmunoCAP IgE inhibition; serum preincubated with 100 µg/mL rCan f 4, Bos d 23k immobilized
[3] = molecular target: IgE of Bos d 23k-reactive serum B; experiment: as above
[4] = molecular target: IgE of Bos d 23k-reactive serum C; experiment: as above

Row | Molecule | allergen specific IgE antibody [1] | percent inhibition of IgE binding to Bos d 23k [2] | percent inhibition of IgE binding to Bos d 23k [3] | percent inhibition of IgE binding to Bos d 23k [4]
1 | myeloma IgE (antibody) | 0.023 kUA/L |  |  | 
2 | B1 |  | > 96% | > 96% | > 96%
